# Source: patent US6994987B1, “Process for producing tripeptides” (Calpis Co., Ltd., priority 1999, dated 2006)
# T1: Leucine aminopeptidase, microsomal (Sus scrofa, UniProt P15145)
# T1 construct: purchased Sigma Chemical Co; host or cells: porcine kidney
# T1 sequence (P15145 1-963): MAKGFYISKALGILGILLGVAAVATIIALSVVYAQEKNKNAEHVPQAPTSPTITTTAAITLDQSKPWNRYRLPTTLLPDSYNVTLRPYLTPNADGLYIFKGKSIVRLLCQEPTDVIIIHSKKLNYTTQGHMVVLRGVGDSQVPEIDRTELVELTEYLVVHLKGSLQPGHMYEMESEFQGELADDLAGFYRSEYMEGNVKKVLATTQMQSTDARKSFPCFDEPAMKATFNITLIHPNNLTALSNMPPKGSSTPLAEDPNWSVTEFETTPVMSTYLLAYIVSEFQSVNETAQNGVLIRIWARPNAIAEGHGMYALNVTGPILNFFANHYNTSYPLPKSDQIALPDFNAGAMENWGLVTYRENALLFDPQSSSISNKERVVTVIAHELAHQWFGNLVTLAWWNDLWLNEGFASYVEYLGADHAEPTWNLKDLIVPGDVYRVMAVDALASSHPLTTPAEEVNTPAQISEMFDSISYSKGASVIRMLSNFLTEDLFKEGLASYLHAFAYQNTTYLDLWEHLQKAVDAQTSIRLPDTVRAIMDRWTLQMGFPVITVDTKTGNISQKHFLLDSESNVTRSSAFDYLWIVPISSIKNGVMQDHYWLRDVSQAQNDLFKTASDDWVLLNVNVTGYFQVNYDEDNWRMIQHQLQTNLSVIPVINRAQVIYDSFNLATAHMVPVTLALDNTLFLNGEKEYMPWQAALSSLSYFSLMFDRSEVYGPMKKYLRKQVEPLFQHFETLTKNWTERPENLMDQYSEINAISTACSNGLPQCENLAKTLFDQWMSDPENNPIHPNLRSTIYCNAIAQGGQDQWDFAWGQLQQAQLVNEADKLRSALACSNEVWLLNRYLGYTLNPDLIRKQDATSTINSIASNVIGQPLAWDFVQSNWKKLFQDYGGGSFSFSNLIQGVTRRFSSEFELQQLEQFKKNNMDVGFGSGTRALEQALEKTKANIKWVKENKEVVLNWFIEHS
# T2: Leucine aminopeptidase, cytosol (Sus scrofa, UniProt P28839)
# T2 construct: purchased Sigma Chemical Co; host or cells: porcine kidney
# T2 sequence (P28839 1-519): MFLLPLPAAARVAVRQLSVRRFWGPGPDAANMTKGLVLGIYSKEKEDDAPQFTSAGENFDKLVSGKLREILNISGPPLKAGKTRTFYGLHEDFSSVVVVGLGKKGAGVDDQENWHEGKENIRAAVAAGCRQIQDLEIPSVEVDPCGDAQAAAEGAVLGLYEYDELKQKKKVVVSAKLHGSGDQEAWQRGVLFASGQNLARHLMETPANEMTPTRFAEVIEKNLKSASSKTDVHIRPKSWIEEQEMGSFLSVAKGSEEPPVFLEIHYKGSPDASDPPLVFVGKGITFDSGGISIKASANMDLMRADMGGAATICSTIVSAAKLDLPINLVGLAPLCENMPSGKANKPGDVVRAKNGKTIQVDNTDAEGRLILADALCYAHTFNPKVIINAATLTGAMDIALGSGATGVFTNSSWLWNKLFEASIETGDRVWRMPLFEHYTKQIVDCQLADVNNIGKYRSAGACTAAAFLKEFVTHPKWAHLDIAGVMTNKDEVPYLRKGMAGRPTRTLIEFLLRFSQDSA
# Tests used:
# [1] = tested on: Aminipeptidase I + Carboxypeptidase Y; assay: Reactivity of peptidase formulations against synthetic peptides: aminopeptidase I + carboxypeptidase Y; format: biochemical; conditions: phosphate buffer pH 5.3, 37° C. 3 hours, HPLC
# Experimental: (§1) Peptides shown in Table 1 were chemically synthesized. […] All of these synthetic peptides were synthesized with the automatic peptide synthesizing machine PPSM-8 (manufactured by Shimadzu Corporation).
# (§2) Each synthetic peptide was dissolved at the concentration of 10 μg/ml in 100 mM phosphate buffer pH 5.3 as to Experiments 1-1 to 1-4, 1-10 to 1-12, 1-16 and 1-21, or in 50 mM Tris-HCl buffer pH 8.0 as to other Experiments. Each of various peptidase formulations shown in Table 1 was then added so that the concentration thereof became 0.01 μg/ml, and the reaction was performed at 37° C. for 3 hours. After the enzyme reaction, the mixture was analyzed by the reverse phase high performance liquid chromatography (HPLC). […] The fractions of the detected peak were collected and amino acid sequence analysis was performed by the automatic peptide analyzer model PPSQ-10 (manufactured by Shimadzu Corporation). […]
# [2] = tested on: Leucine aminopeptidase, microsomal + Carboxypeptidase Y; assay: Reactivity of peptidase formulations against synthetic peptides: LM + carboxypeptidase Y; format: biochemical; conditions: phosphate buffer pH 5.3, 37° C. 3 hours, HPLC
# Experimental: as §1, §2
# [3] = tested on: Aminopeptidase + Carboxypeptidase Y; assay: Reactivity of peptidase formulations against synthetic peptides: aminopeptidase A + carboxypeptidase Y; format: biochemical; conditions: 0.01 μg/ml, peptide 10 μg/ml, phosphate buffer pH 5.3, 37° C. 3 hours, HPLC
# Experimental: as §1, §2
# [4] = tested on: Leucine aminopeptidase, cytosol + Carboxypeptidase Y; assay: Reactivity of peptidase formulations against synthetic peptides: LC + carboxypeptidase Y; format: biochemical; conditions: phosphate buffer pH 5.3, 37° C. 3 hours, HPLC
# Experimental: as §1, §2
# [5] = target: T1, Leucine aminopeptidase, microsomal; assay: Reactivity of peptidase formulations against synthetic peptides: LM alone; format: biochemical, porcine; conditions: no carboxypeptidase, Tris-HCl pH 8.0, 37° C. 3 hours, HPLC
# Experimental: as §1, §2
# [6] = target: T2, Leucine aminopeptidase, cytosol; assay: Reactivity of peptidase formulations against synthetic peptides: LC alone; format: biochemical, porcine; conditions: no carboxypeptidase, Tris-HCl pH 8.0, 37° C. 3 hours, HPLC
# Experimental: as §1, §2
# [7] = target: T3, Aminipeptidase I (Streptomyces griseus subsp. griseus, UniProt P80561); assay: Reactivity of peptidase formulations against synthetic peptides: aminopeptidase I alone; format: biochemical; conditions: no carboxypeptidase, Tris-HCl pH 8.0, 37° C. 3 hours, HPLC
# T3 construct: purchased Sigma Chemical Co
# Experimental: as §1, §2
# [8] = tested on: Aminopeptidase; assay: Reactivity of peptidase formulations against synthetic peptides: aminopeptidase A alone; format: biochemical; conditions: no carboxypeptidase, Tris-HCl pH 8.0, 37° C. 3 hours, HPLC
# Experimental: as §1, §2
# [9] = tested on: synthetic peptide consisting of the 28 amino acids (SEQ ID NO: 28); assay: Two step reaction of proteinase and fraction 4 on the 28 amino acid synthetic peptide; format: biochemical; conditions: proteinase 0.1 μg/ml on 28-mer 10 μg/ml, pH 6.1, 37° C. 5 hours, heat inactivation, then fraction 4, HPLC
# Experimental: To 10 μg/ml of the synthetic peptide consisting of the 28 amino acids that is the same as the one used in Experiment 2 (in 100 mM phosphate buffer pH 6.1), each of the commercially available proteinase enzymes for food processing shown in Table 4 was added at 0.1 μg/ml. The mixture was reacted at 37° C. for 5 hours. After finishing the reaction, the reacted liquid was heated at 100° C. for 5 minutes for inactivating the proteinase, and then reacted with the fraction 4 obtained in Experiment 4.
# [10] = tested on: synthetic peptide consisting of 28 amino acids (SEQ ID NO: 28); assay: Production of the intermediate peptides with proteinase from the 28 amino acid synthetic peptide; format: biochemical; conditions: enzyme 0.1 μg/ml, 28-mer 10 μg/ml, phosphate buffer pH 6.1, 37° C. 5 hours; HPLC and sequence analysis
# From the text: A peptide consisting of 28 amino acids and having a sequence identical with a part of casein sequence and containing the sequence Ile-Pro-Pro and Val-Pro-Pro therein was chemically synthesized by the automatic peptide synthesizer model […]. The sequence of the peptide synthesized is as follows: […](SEQ ID NO: 28)
# This synthetic peptide was reacted with various commercially available proteinase formulations, seeking for a proteinase capable of producing a peptide containing the sequence Ile-Pro-Pro or Val-Pro-Pro therein but containing no Pro other than these sequences.
# That is, 0.1 μg/ml of each enzyme was added to 10 μg/ml of the synthetic peptide (in 100 mM phosphate buffer pH 6.1). The mixture was reacted at 37° C. for 5 hours to obtain a reacted liquid. The reacted liquid was analyzed by the reverse phase high performance liquid chromatography (HPLC). The fractions of the detected peptide peaks were collected and amino acid sequence analysis was performed by the automatic peptide analyzer model PPSQ-10.
# T3 sequence (P80561 46-329): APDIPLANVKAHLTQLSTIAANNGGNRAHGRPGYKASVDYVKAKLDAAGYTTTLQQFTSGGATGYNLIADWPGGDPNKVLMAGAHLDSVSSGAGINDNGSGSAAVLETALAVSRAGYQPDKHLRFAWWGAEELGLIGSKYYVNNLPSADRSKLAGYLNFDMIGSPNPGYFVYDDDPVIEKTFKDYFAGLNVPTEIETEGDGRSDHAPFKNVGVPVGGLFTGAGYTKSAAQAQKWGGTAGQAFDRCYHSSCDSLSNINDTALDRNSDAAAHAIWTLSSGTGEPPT
molecule,measurement,setting,value
Asn Ile Pro Pro Leu (NIPPL),Existence of IPP or VPP peaks,[1],IPP
same,Existence of IPP or VPP peaks,[2],IPP
same,Existence of IPP or VPP peaks,[3],IPP
same,Existence of IPP or VPP peaks,[4],IPP
Val Val Pro Pro (VVPP),Existence of IPP or VPP peaks,[5],VPP
same,Existence of IPP or VPP peaks,[6],VPP
same,Existence of IPP or VPP peaks,[7],VPP
same,Existence of IPP or VPP peaks,[8],VPP
"Papain: proteinase, Papaya Latex, Sigma Chemical Co. (protein, UniProt P00784 134-345, looked up) Papain: IPEYVDWRQKGAVTPVKNQGSCGSCWAFSAVVTIEGIIKIRTGNLNEYSEQELLDCDRRSYGCNGGYPWSALQLVAQYGIHYRNTYPYEGVQRYCRSREKGPYAAKTDGVRQVQPYNEGALLYSIANQPVSVVLEAAGKDFQLYRGGIFVGPCGNKVDHAVAAVGYGPNYILIKNSWGTGWGENGYIRIKRGTGNSYGVCGLYTSSFYPVKN",Production of the tripeptides Ile-Pro-Pro and Val-Pro-Pro,[9],Yes
same,Production of the tripeptides Ile-Pro-Pro and Val-Pro-Pro,[9]; listed as papain,can produce the tripeptides Ile-Pro-Pro and Val-Pro-Pro
same,Peptides produced in the reaction mixture,[10],"a peptide Val-Pro-Pro-Phe-Leu as the peptide containing the sequence Val-Pro-Pro, and peptides Asn-Ile-Pro-Pro-Leu-Thr and Ile-Pro-Pro-Leu-Thr"
